The source of these data is patent US20200317768A1 (published 2020).

Holding throughout (test): SPR (BIACORE), captured antibody, FcgR as analyte
In general terms: In SPR one partner is held on a chip, and binding of the other changes the refractive index at the surface.

Experiment [1] deals with T1, cynomolgus monkey FcγRIIb extracellular domain, His-tagged (cynomolgus monkey).
T1 construct: also called cyno FcγRIIb; cynoFcγRIIb; not shown: C-terminal His-tag
T1 chain: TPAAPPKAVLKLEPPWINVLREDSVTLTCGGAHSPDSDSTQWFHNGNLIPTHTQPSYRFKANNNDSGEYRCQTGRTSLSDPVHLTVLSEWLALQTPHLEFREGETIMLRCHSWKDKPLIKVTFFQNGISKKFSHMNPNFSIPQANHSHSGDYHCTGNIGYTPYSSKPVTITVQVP

Experiment [2] deals with T2, cynomolgus monkey FcγRIIa3 extracellular domain, His-tagged (cynomolgus monkey).
T2 construct: also called cyno FcγRIIa3; cynoFcgRIIa3; not shown: C-terminal His-tag
T2 chain: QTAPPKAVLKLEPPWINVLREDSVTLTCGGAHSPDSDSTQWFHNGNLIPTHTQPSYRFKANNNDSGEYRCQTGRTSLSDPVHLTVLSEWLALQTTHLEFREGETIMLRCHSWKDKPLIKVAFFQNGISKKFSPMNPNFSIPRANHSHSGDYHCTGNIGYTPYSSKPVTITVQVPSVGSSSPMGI

Experiment [3] deals with T3, cynomolgus monkey FcγRIIa2 extracellular domain, His-tagged (cynomolgus monkey).
T3 construct: also called cyno FcγRIIa2; cynoFcgRIIa2; not shown: C-terminal His-tag
T3 chain: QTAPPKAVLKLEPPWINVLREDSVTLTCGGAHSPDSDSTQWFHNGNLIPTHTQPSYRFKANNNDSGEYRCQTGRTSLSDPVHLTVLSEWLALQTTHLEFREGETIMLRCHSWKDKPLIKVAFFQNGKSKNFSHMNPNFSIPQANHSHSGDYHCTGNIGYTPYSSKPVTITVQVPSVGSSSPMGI

Experiment [4] addresses T4, human FcγRIIaR extracellular domain, His-tagged (human, UniProt P12318 34-217).
T4 construct: also called human FcγRIIa (type R); FcgRIIaR; not shown: C-terminal His-tag
T4 chain: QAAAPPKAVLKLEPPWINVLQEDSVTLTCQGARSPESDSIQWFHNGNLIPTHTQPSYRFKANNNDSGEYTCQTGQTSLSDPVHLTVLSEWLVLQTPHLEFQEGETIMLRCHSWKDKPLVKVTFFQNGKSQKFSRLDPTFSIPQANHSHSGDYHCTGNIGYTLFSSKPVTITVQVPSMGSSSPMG

The target of experiment [5] is T5, human FcγRIIIaV extracellular domain, His-tagged (human, UniProt P08637 17-208).
T5 construct: also called FcgRIIIaV; not shown: C-terminal His-tag

Experiment [6] has as its target T6, human FcγRIIaH extracellular domain, His-tagged (human, UniProt P12318 34-217).
T6 construct: also called human FcγRIIa (type H); FcgRIIaH; not shown: C-terminal His-tag
T6 sequence: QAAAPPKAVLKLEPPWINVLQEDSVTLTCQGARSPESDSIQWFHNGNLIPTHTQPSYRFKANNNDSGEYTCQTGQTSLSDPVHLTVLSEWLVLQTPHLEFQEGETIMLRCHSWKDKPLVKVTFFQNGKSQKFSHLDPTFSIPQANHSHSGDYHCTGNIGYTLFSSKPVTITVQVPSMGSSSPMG

The target in experiment [7] is T7, cynomolgus monkey FcγRIIa1 extracellular domain, His-tagged (cynomolgus monkey).
T7 construct: also called cyno FcγRIIa1; cynoFcgRIIa1; not shown: C-terminal His-tag
T7 chain: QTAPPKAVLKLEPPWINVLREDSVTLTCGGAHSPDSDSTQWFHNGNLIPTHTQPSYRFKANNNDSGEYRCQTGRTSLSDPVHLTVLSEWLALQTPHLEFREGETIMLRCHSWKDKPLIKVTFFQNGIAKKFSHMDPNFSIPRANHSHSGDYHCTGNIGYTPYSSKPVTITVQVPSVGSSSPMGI

In experiment [8] the target is T8, human FcγRIIb extracellular domain, His-tagged (human, UniProt P31994 43-217).
T8 construct: also called FcgRIIb (human); not shown: C-terminal His-tag
T8 sequence: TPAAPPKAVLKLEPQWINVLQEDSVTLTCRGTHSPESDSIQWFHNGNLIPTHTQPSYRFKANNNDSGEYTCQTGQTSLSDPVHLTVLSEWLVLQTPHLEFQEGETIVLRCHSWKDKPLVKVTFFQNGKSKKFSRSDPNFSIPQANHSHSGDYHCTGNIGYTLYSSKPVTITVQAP

Experiment [9] addresses T9, cynomolgus monkey FcγRIIIaS extracellular domain, His-tagged (cynomolgus monkey, UniProt Q8SPW2 21-206 at identity 1.00)).
T9 construct: also called cyno FcγRIIIaS; cynoFcγRIIIaS; not shown: C-terminal His-tag
T9 chain: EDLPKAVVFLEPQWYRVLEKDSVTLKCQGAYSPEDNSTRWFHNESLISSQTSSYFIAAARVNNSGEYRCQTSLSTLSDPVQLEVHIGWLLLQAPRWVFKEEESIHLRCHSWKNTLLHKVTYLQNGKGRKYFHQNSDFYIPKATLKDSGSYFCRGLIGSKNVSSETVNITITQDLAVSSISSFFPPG

T5 sequence (P08637 17-208 F176V): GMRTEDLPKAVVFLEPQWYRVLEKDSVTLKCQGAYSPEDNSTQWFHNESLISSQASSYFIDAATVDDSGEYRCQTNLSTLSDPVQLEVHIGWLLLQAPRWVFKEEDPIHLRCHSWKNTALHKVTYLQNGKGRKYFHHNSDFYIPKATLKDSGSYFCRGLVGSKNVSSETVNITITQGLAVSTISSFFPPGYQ

B1: M103205H795-MY460/M103202L889-SK1 (antibody, human IgG1, kappa)
heavy: QVTLKESGPVLVKPTETLTLTCTVSGIDLSHDDISWVRQAPGKGLEWVGIISYAGSTYYASWAKGRLTISKDTSKNQVVLTMTNMDPVDTATYYCARGVPAYSHGGDLWGQGTLVTVSSASTKGPSVFPLAPSSKSTSGGTAALGCLVKDYFPEPVTVSWNSGALTSGVHTFPAVLQSSGLYSLSSVVTVPSSSLGTQTYICNVNHKPSNTKVDKKVEPKSCDKTHTCPPCPEPELLTGPSVFLFPPKPKDTLMISRTPEVTCVVVDVSDEDPEVKFNWYVDGVEVHNAKTKPREEQYNSTYRVVSVLTVLHQDWLNGKEYKCKVSNKALPKPIEKTISKAKGQPREPQVYTLPPSREEMTKNQVSLTCLVKGFYPSDIAVEWESNGQPENNYKTTPPVLDSDGSFFLYSKLTVDKSRWQQGNVFSCSVMHEALHNHYTQKSLSLSP
light: DIVMTQSPATLSLSPGERATLSCTSSQSVYHANWLSWFQQKPGQPPKLLIYWASTLAYGVPSRFSGSGSGTDFTLTISSLQPEDAATYYCAGGYGGGRYAFGQGTKVEIKRTVAAPSVFIFPPSDEQLKSGTASVVCLLNNFYPREAKVQWKVDNALQSGNSQESVTEQDSKDSTYSLSSTLTLSKADYEKHKVYACEVTHQGLSSPVTKSFNRGEC
notes: copies: 2 + 2
For B1, the equilibrium dissociation constant (Kd) in [1] turned out to be 790 nM; in experiment [2], 5500 nM; in [3], 3100 nM; in [4], 550 nM; in experiment [5], 6700 nM; in experiment [6], 260 nM. Further, the dissociation constant (Kd) in experiment [7] was found to be 3100 nM; in experiment [8] it was 2400 nM; in experiment [9], 2700 nM.

B2: M103205H795-MY461/M103202L889-SK1 (antibody, human IgG1, kappa)
heavy: QVTLKESGPVLVKPTETLTLTCTVSGIDLSHDDISWVRQAPGKGLEWVGIISYAGSTYYASWAKGRLTISKDTSKNQVVLTMTNMDPVDTATYYCARGVPAYSHGGDLWGQGTLVTVSSASTKGPSVFPLAPSSKSTSGGTAALGCLVKDYFPEPVTVSWNSGALTSGVHTFPAVLQSSGLYSLSSVVTVPSSSLGTQTYICNVNHKPSNTKVDKKVEPKSCDKTHTCPPCPFPELLTGPSVFLFPPKPKDTLMISRTPEVTCVVVDVSDEDPEVKFNWYVDGVEVHNAKTKPREEQYNSTYRVVSVLTVLHQDWLNGKEYKCKVSNKALPKPIEKTISKAKGQPREPQVYTLPPSREEMTKNQVSLTCLVKGFYPSDIAVEWESNGQPENNYKTTPPVLDSDGSFFLYSKLTVDKSRWQQGNVFSCSVMHEALHNHYTQKSLSLSP
light: DIVMTQSPATLSLSPGERATLSCTSSQSVYHANWLSWFQQKPGQPPKLLIYWASTLAYGVPSRFSGSGSGTDFTLTISSLQPEDAATYYCAGGYGGGRYAFGQGTKVEIKRTVAAPSVFIFPPSDEQLKSGTASVVCLLNNFYPREAKVQWKVDNALQSGNSQESVTEQDSKDSTYSLSSTLTLSKADYEKHKVYACEVTHQGLSSPVTKSFNRGEC
notes: copies: 2 + 2
Turning to B2, the dissociation constant Kd in experiment [1] amounted to 470 nM; in experiment [2] it was 3300 nM; in experiment [3], 1800 nM; in experiment [4], 340 nM; in experiment [5], 5400 nM; in experiment [6], 130 nM. Also, the equilibrium dissociation constant (Kd) in [7] is 1300 nM; in experiment [8], 1700 nM; in experiment [9], 2100 nM.

B3: M103205H795-MY463/M103202L889-SK1 (antibody, human IgG1, kappa)
heavy: QVTLKESGPVLVKPTETLTLTCTVSGIDLSHDDISWVRQAPGKGLEWVGIISYAGSTYYASWAKGRLTISKDTSKNQVVLTMTNMDPVDTATYYCARGVPAYSHGGDLWGQGTLVTVSSASTKGPSVFPLAPSSKSTSGGTAALGCLVKDYFPEPVTVSWNSGALTSGVHTFPAVLQSSGLYSLSSVVTVPSSSLGTQTYICNVNHKPSNTKVDKKVEPKSCDKTHTCPPCPHPELLTGPSVFLFPPKPKDTLMISRTPEVTCVVVDVSDEDPEVKFNWYVDGVEVHNAKTKPREEQYNSTYRVVSVLTVLHQDWLNGKEYKCKVSNKALPKPIEKTISKAKGQPREPQVYTLPPSREEMTKNQVSLTCLVKGFYPSDIAVEWESNGQPENNYKTTPPVLDSDGSFFLYSKLTVDKSRWQQGNVFSCSVMHEALHNHYTQKSLSLSP
light: DIVMTQSPATLSLSPGERATLSCTSSQSVYHANWLSWFQQKPGQPPKLLIYWASTLAYGVPSRFSGSGSGTDFTLTISSLQPEDAATYYCAGGYGGGRYAFGQGTKVEIKRTVAAPSVFIFPPSDEQLKSGTASVVCLLNNFYPREAKVQWKVDNALQSGNSQESVTEQDSKDSTYSLSSTLTLSKADYEKHKVYACEVTHQGLSSPVTKSFNRGEC
notes: copies: 2 + 2
On to B3, for which the Kd amounted to 580 nM in experiment [1]; 4400 nM in [2]; 1800 nM in experiment [3]; 520 nM in experiment [4]; 4300 nM in experiment [5]; 220 nM in experiment [6]. In addition, the Kd was determined as 2100 nM in [7], 2800 nM in [8] and 1600 nM in [9].

B4: M103205H795-MY462/M103202L889-SK1 (antibody, human IgG1, kappa)
heavy: QVTLKESGPVLVKPTETLTLTCTVSGIDLSHDDISWVRQAPGKGLEWVGIISYAGSTYYASWAKGRLTISKDTSKNQVVLTMTNMDPVDTATYYCARGVPAYSHGGDLWGQGTLVTVSSASTKGPSVFPLAPSSKSTSGGTAALGCLVKDYFPEPVTVSWNSGALTSGVHTFPAVLQSSGLYSLSSVVTVPSSSLGTQTYICNVNHKPSNTKVDKKVEPKSCDKTHTCPPCPGPELLTGPSVFLFPPKPKDTLMISRTPEVTCVVVDVSDEDPEVKFNWYVDGVEVHNAKTKPREEQYNSTYRVVSVLTVLHQDWLNGKEYKCKVSNKALPKPIEKTISKAKGQPREPQVYTLPPSREEMTKNQVSLTCLVKGFYPSDIAVEWESNGQPENNYKTTPPVLDSDGSFFLYSKLTVDKSRWQQGNVFSCSVMHEALHNHYTQKSLSLSP
light: DIVMTQSPATLSLSPGERATLSCTSSQSVYHANWLSWFQQKPGQPPKLLIYWASTLAYGVPSRFSGSGSGTDFTLTISSLQPEDAATYYCAGGYGGGRYAFGQGTKVEIKRTVAAPSVFIFPPSDEQLKSGTASVVCLLNNFYPREAKVQWKVDNALQSGNSQESVTEQDSKDSTYSLSSTLTLSKADYEKHKVYACEVTHQGLSSPVTKSFNRGEC
notes: copies: 2 + 2
For the molecule B4, the Kd worked out at 470 nM in [1]; 4200 nM in experiment [2]; 1600 nM in experiment [3]; 490 nM in experiment [4]; 5400 nM in [5]; 240 nM in experiment [6]. Further, the Kd in [7] was found to be 1900 nM; in experiment [8], 1900 nM; in experiment [9], 1800 nM.

Usually Kd stands for a measure of binding affinity in units of concentration.
